Data on six proteins can be found in patent US20100015650.

Data set [1] has as its target T1, BRB1 tyrosine kinase substrate peptide.
T1 chain: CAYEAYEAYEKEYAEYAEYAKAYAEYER

B1: TIE2 (protein)
chain: QLKRANVQRRMAQAFQNVREEPAVQFNSGTLALNRKVKNNPDPTIYPVLDWNDIKFQDVIGEGNFGQVLKARIKKDGLRMDAAIKRMKEYASKDDHRDFAGELEVLCKLGHHPNIINLLGACEHRGYLYLAIEYAPHGNLLDFLRKSRVLETDPAFAIANSTASTLSSQQLLHFAADVARGMDYLSQKQFIHRDLAARNILVGENYVAKIADFGLSRGQEVYVKKTMGRLPVRWMAIESLNYSVYTTNSDVWSYGVLLWEIVSLGGTPYCGMTCAELYEKLPQGYRLEKPLNCDDEVYDLMRQCWREKPYERPSFAQILVSLNRMLEERKTYVNTTLYEKFTYAGIDCSAEEAA
With B1, the Signal to Noise ratio with BRB1 Peptide (TR-FRET kinase assay; kinase 0.5 nM) in data set [1] is 17.7.

B2: ROS (protein)
chain: HRRLKNQKSAKEGVTVLINEDKELAELRGLAAGVGLANACYAIHTLPTQEEIENLPAFPREKLTLRLLLGSGAFGEVYEGTAVDILGVGSGEIKVAVKTLKKGSTDQEKIEFLKEAHLMSKFNHPNILKQLGVCLLNEPQYIILELMEGGDLLTYLRKARMATFYGPLLTLVDLVDLCVDISKGCVYLERMHFIHRDLAARNCLVSVKDYTSPRIVKIGDFGLARDIYKNDYYRKRGEGLLPVRWMAPESLMDGIFTTQSDVWSFGILIWEILTLGHQPYPAHSNLDVLNYVQTGGRLEPPRNCPDDLWNLMTQCWAQEPDQRPTFHRIQDQLQLFRNFFLNSIYKSRDEANNSGVINESFEGEDGDVICLNSDDIMPVALMETKNREGLNYMVLATECGQGEEKSEGPLGSQESESCGLRKEEKEPHADKDFCQEKQVAYCPSGKPEGLNYACLTHSGYGDGSD
Consider B2, for which the Signal to Noise ratio with BRB1 Peptide (TR-FRET kinase assay; kinase 0.25 nM) in data set [1] was 24.5.

B3: BTK (protein)
chain: AAVILESIFLKRSQQKKKTSPLNFKKRLFLLTVHKLSYYEYDFERGRRGSKKGSIDVEKITCVETVVPEKNPPPERQIPRRGEESSEMEQISIIERFPYPFQVVYDEGPLYVFSPTEELRKRWIHQLKNVIRYNSDLVQKYHPCFWIDGQYLCCSQTAKNAMGCQILENRNGSLKPGSSHRKTKKPLPPTPEEDQILKKPLPPEPAAAPVSTSELKKVVALYDYMPMNANDLQLRKGDEYFILEESNLPWWRARDKNGQEGYIPSNYVTEAEDSIEMYEWYSKHMTRSQAEQLLKQEGKEGGFIVRDSSKAGKYTVSVFAKSTGDPQGVIRHYVVCSTPQSQYYLAEKHLFSTIPELINYHQHNSAGLISRLKYPVSQQNKNAPSTAGLGYGSWEIDPKDLTFLKELGTGQFGVVKYGKWRGQYDVAIKMIKEGSMSEDEFIEEAKVMMNLSHEKLVQLYGVCTKQRPIFIITEYMANGCLLNYLREMRHRFQTQQLLEMCKDVCEAMEYLESKQFLHRDLAARNCLVNDQGVVKVSDFGLSRYVLDDEYTSSVGSKFPVRWSPPEVLMYSKFSSKSDIWAFGVLMWEIYSLGKMPYERFTNSETAEHIAQGLRLYRPHLASEKVYTIMYSCWHEKADERPTFKILLSNILDVMDEES
For B3, the Signal to Noise ratio with BRB1 Peptide (TR-FRET kinase assay; kinase 0.25 nM) in data set [1] is 6.8.

B4: CSK (protein)
chain: MSAIQAAWPSGTECIAKYNFHGTAEQDLPFCKGDVLTIVAVTKDPNWYKAKNKVGREGIIPANYVQKREGVKAGTKLSLMPWFHGKITREQAERLLYPPETGLFLVRESTNYPGDYTLCVSCDGKVEHYRIMYHASKLSIDEEVYFENLMQLVEHYTSDADGLCTRLIKPKVMEGTVAAQDEFYRSGWALNMKELKLLQTIGKGEFGDVMLGDYRGNKVAVKCIKNDATAQAFLAEASVMTQLRHSNLVQLLGVIVEEKGGLYIVTEYMAKGSLVDYLRSRGRSVLGGDCLLKFSLDVCEAMEYLEGNNFVHRDLAARNVLVSEDNVAKVSDFGLTKEASSTQDTGKLPVKWTAPEALREKKFSTKSDVWSFGILLWEIYSFGRVPYPRIPLKDVVPRVEKGYKMDAPDGCPPAVYEVMKNCWHLDAAMRPSFLQLREQLEHIKTHELHL
As for B4, the Signal to Noise Ratio with BRB1 Peptide (TR-FRET kinase assay; kinase 20 nM) in data set [1] came out at 27.2.

B5: EphA4 (protein)
chain: SRRRSKYSKAKQEADEEKHLNQGVRTYVDPFTYEDPNQAVREFAKEIDASCIKIEKVIGVGEFGEVCSGRLKVPGKREICVAIKTLKAGYTDKQRRDFLSEASIMGQFDHPNIIHLEGVVTKCKPVMIITEYMENGSLDAFLRKNDGRFTVIQLVGMLRGIGSGMKYLSDMSYVHRDLAARNILVNSNLVCKVSDFGMSRVLEDDPEAAYTTRGGKIPIRWTAPEAIAYRKFTSASDVWSYGIVMWEVMSYGERPYWDMSNQDVIKAIEEGYRLPPPMDCPIALHQLMLDCWQKERSDRPKFGQIVNMLDKLIRNPNSLKRTGTESSRPNTALLDPSSPEFSAVVSVGDWLQAIKMDRYKDNFTAAGYTTLEAVVHVNQEDLARIGITAITHQNKILSSVQAMRTQMQQMHGRMVPV
In the data set with poly-EY, B5 gave an Average Signal at 665 nm (TR-FRET kinase assay; kinase 2 nM, read 1 h after adding Eu-PT66 antibody) of 89000; an Average Signal at 665 nm (TR-FRET kinase assay; kinase 2 nM, read 18 h after adding Eu-PT66 antibody) of 35000; an Average Signal at 665 nm (TR-FRET kinase assay; kinase 2 nM, read 24 h after adding Eu-PT66 antibody) of 30100. In the data set with poly-EAY, this protein yielded an Average Signal at 665 nm (TR-FRET kinase assay; kinase 2 nM, read 1 h after adding Eu-PT66 antibody) of 110000; an Average Signal at 665 nm (TR-FRET kinase assay; kinase 2 nM, read 18 h after adding Eu-PT66 antibody) of 51400; an Average Signal at 665 nm (TR-FRET kinase assay; kinase 2 nM, read 24 h after adding Eu-PT66 antibody) of 45800. Moreover, in data set [1], the Average Signal at 665 nm (TR-FRET kinase assay; kinase 2 nM, read 1 h after adding Eu-PT66 antibody) amounted to 134000; the Average Signal at 665 nm (TR-FRET kinase assay; kinase 2 nM, read 18 h after adding Eu-PT66 antibody) turned out to be 117000; the Average Signal at 665 nm (TR-FRET kinase assay; kinase 2 nM, read 24 h after adding Eu-PT66 antibody) stood at 116000; the Signal to Noise ratio with BRB1 Peptide (TR-FRET kinase assay; kinase 0.5 nM) was determined as 31.5.

B6: TYRO3 (protein)
chain: LRKRRKETRFGQAFDSVMARGEPAVHFRAARSFNRERPERIEATLDSLGISDELKEKLEDVLIPEQQFTLGRMLGKGEFGSVREAQLKQEDGSFVKVAVKMLKADIIASSDIEEFLREAACMKEFDHPHVAKLVGVSLRSRAKGRLPIPMVILPFMKHGDLHAFLLASRIGENPFNLPLQTLIRFMVDIACGMEYLSSRNFIHRDLAARNCMLAEDMTVCVADFGLSRKIYSGDYYRQGCASKLPVKWLALESLADNLYTVQSDVWAFGVTMWEIMTRGQTPYAGIENAEIYNYLIGGNRLKQPPECMEDVYDLMYQCWSADPKQRPSFTCLRMELENILGQLSVLSASQDPLYINIERAEEPTAGGSLELPGRDQPYSGAGDGSGMGAVGGTPSDCRYILTPGGLAEQPGQAEHQPESPLNETQRLLLLQQGLLPHSSC
As to B6, in data set [1], the Signal to Noise ratio with BRB1 Peptide (TR-FRET kinase assay; kinase 0.25 nM) stood at 6.1.
